Test results reported in FireProtDB (doi:10.1021/bi00102a015).

Conditions: Rhodobacter capsulatus (strain ATCC BAA-309 / NBRC 16581 / SB1003); pH 7.5; 25 °C; GdnHCl; CD; Tris-HCl 20 mM; NaCl 40 mM; whole UniProt chain shown

B1: Cytochrome c2 wild type, P00094 (protein)
chain: MKISLTAATVAALVLAAPAFAGDAAKGEKEFNKCKTCHSIIAPDGTEIVKGAKTGPNLYGVVGRTAGTYPEFKYKDSIVALGASGFAWTEEDIATYVKDPGAFLKEKLDDKKAKTGMAFKLAKGGEDVAAYLASVVK
  denaturant m value: 2.7 kcal/mol/M
  denaturant midpoint (higher = more stable): 1.7 M
  unfolding free energy: 4.4 kcal/mol
